According to US7645449B2, “Sensitizing cells for apoptosis by selectively blocking cytokines” (priority 2003, dated 2010):

Legend:
Type in all cases: cell-based, human
[1] = system: Bcl-xL and cFlip/FLAME-1 in bladder tumor cells (RT112); assay: Western blot of apoptosis-related proteins in RT112 cells
Protocol: The observation that tumor cells treated with IL-4 display a reduced sensitivity to chemotherapeutic drugs led us to investigate whether this cytokine would influence the expression of apoptosis regulatory genes. Western blot analysis of apoptosis-related proteins was performed on cancer cell lines treated for 48 hours with IL-4 as compared to untreated or IL-2-treated controls. […] The increased expression of cFlip/FLAME-1 prompted us to investigate if IL-4 could protect tumor cells from death receptor stimulation. CD95 ligand (CD95L) is one of the major effector molecules of cytotoxic T lymphocytes and NK cells.
(§1) Cell pellets were washed twice with cold PBS and lysed on ice for 30 minutes with 1% NP40 lysis buffer (20 mM Tris-HCl pH 7.2, 200 mM NaCl, 1% NP40) in the presence of 1 mM phenylmethylsulphonyl fluoride (PMSF) and 2 μg/ml each of aprotinin, leupeptin and pepstatin. Cell debris was removed by centrifugation at 13,000 rpm for 10 minutes at 4° C. Lysate concentration was determined using the Bio-Rad protein assay (Bio-Rad Laboratories, Richmond, Calif.). Aliquots of cell extracts containing 30 μg of total protein were resolved on 10% or 12% SDS-PAGE and transferred to a Hybond-C extra nitrocellulose membrane (Amersham Pharmacia Biotech, Piscataway, N.J.). […]

[2] = system: Bcl-XL and cFlip/FLAME-1 in LNCap prostate cancer cells; assay: Immunoblot of Bcl-XL and cFlip/FLAME-1 in LNCaP cells; settings: following IL-4 treatment
Protocol: The observation that prostate and breast tumor cells treated with IL-4 display a reduced sensitivity to death induced by CD95 and chemotherapeutic drugs led us to investigate whether this cytokine would influence the expression of apoptosis regulatory genes. […] Therefore, IL-4-mediated increased survival in bladder, prostate and breast cancer cells is associated with upregulation of anti-apoptotic proteins.
as §1

[3] = system: freshly isolated normal breast epithelial cells; assay: Bcl-XL expression and chemotherapy-induced apoptosis in normal breast epithelial cells exposed to IL-4
Text: To confirm that IL-4-induced upregulation of Bcl-XL is able to protect epithelial breast cells from apoptosis, freshly isolated normal breast epithelial cells were exposed to IL-4 and analyzed Bcl-XL expression and sensitivity to a panel of chemotherapeutic drugs commonly used to treat breast cancer. […] To confirm that in vivo exposure to IL-4 is responsible for high Bcl-XL expression and resistance to chemotherapy in breast cancer, Bcl-XL expression and sensitivity to apoptosis of primary breast carcinoma cells cultivated in the presence or absence of IL-4 was measured Freshly isolated breast cancer cells expressed high levels of Bcl-XL and were scarcely sensitive to chemotherapeutic drugs (FIGS. 14C and D). […] Thus, in vivo IL-4 production promotes the survival of breast cancer cells. […]
Cell pellets were washed twice with cold PBS and lysed on ice for 30 minutes with 1% NP40 lysis buffer (20 mM Tris-HCl pH 7.2, 200 mM NaCl, 1% NP40) in the presence of 1 mM phenylmethylsulphonyl fluoride (PMSF) and 2 μg/ml each of aprotinin, leupeptin and pepstatin. […] Lysate concentration was determined using the Bio-Rad protein assay (Bio-Rad Laboratories, Richmond, Calif.). […]

B1: IL-4: human recombinant IL-4 (protein, UniProt P05112 25-153, looked up)
Interleukin-4: HKCDITLQEIIKTLNSLTEQKTLCTELTVTDIFAASKNTTEKETFCRAATVLRQFYSHHEKDTRCLGATAQQFHRHKQLIRFLKRLDRNLWGLAGLNSCPVKEANQSTLENFLERLKTIMREKYSKCSS
[1]; 48 hours with IL-4
  levels of caspases and other pro- and anti-apoptotic Bcl-2 family members: remained unchanged
[1]; 48 hours with IL-4, compared to untreated or IL-2-treated controls
  levels of Bcl-xL and cFlip/FLAME-1: increased
[2]
  levels of Bcl-XL and cFlip/FLAME-1 in LNCap cells: considerably upregulated
[3]; IL-4 pretreatment
  apoptosis of normal breast epithelial cells induced by cisplatin, doxorubicin and taxol: significantly protected
[3]; IL-4 treatment
  Bcl-XL expression in normal breast epithelial cells: considerably increased the expression of Bcl-XL
